# Measurements from the supplement of paper PMC5998384.
# How the values were obtained:
# HeLa Kyoto [1] = experiment: solubility in G1/S (NP-40 vs SDS abundance) (log2 ratio); higher = more soluble; details: cell cycle stage: G1/S
# HeLa Kyoto [2] = experiment: melting temperature (median over replicates), in situ; higher = more thermally stable
# HeLa Kyoto [3] = experiment: solubility change mitosis vs G1/S (difference of NP-40 vs SDS log2 ratios) (log2 ratio difference); higher = more soluble in mitosis
# HeLa Kyoto [4] = experiment: thermal stability score vs G1/S (z-score of summed log2 fold changes over temperatures); higher = more thermally stable than in G1/S
# [5] = cell cycle stage: early G1 (4.5 h after nocodazole release)
# 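Throughout, for melting temperature (median over replicates), in situ: HeLa Kyoto cells synchronized by double thymidine or nocodazole block, proteins quantified by TMT10plex mass spectrometry, three independent biological replicates.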
# 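Throughout, for solubility change mitosis vs G1/S (difference of NP-40 vs SDS log2 ratios): synchronized HeLa Kyoto cells (double thymidine block for G1/S, nocodazole release for mitosis), protein amounts in NP-40 versus SDS lysates quantified by mass spectrometry, three biological replicates.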
# 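Throughout, for solubility in G1/S (NP-40 vs SDS abundance): HeLa Kyoto cells arrested at G1/S by double thymidine block, proteins quantified by TMT10plex mass spectrometry in mild NP-40 versus SDS extracts, three biological replicates.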
# 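Throughout, for thermal stability score vs G1/S (z-score of summed log2 fold changes over temperatures): synchronized HeLa Kyoto cells, proteins quantified by TMT10plex mass spectrometry, three biological replicates, mitosis taken 0.5 h after nocodazole release, G1/S directly after double thymidine block.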
Sequence,solubility in G1/S (log2) (HeLa Kyoto [1]),melting temperature (HeLa Kyoto [2]; cell cycle stage: G1/S) [°C],melting temperature (HeLa Kyoto [2]; cell cycle stage: mitosis) [°C],solubility change mitosis (log2) (HeLa Kyoto [3]),thermal stability score (HeLa Kyoto [4]; [5]),thermal stability score (HeLa Kyoto [4]; cell cycle stage: mitosis)
MAFANLRKVLISDSLDPCCRKILQDGGLQVVEKQNLSKEELIAELQDCEGLIVRSATKVTADVINAAEKLQVVGRAGTGVDNVDLEAATRKGILVMNTPNGNSLSAAELTCGMIMCLARQIPQATASMKDGKWERKKFMGTELNGKTLGILGLGRIGREVATRMQSFGMKTIGYDPIISPEVSASFGVQQLPLEEIWPLCDFITVHTPLLPSTTGLLNDNTFAQCKKGVRVVNCARGGIVDEGALLRALQSGQCAGAALDVFTEEPPRDRALVDHENVISCPHLGASTKEAQSRCGEEIAVQFVDMVKGKSLTGVVNAQALTSAFSPHTKPWIGLAEALGTLMRAWAGSPKGTIQVITQGTSLKNAGNCLSPAVIVGLLKEASKQADVNLVNAKLLVKEAGLNVTTSHSPAAPGEQGFGECLLAVALAGAPYQAVGLVQGTTPVLQGLNGAVFRPEVPLRRDLPLLLFRTQTSDPAMLPTMIGLLAEAGVRLLSYQTSLVSDGETWHVMGISSLLPSLEAWKQHVTEAFQFHF [PHGDH],0.233,55.9,55.4,0.0444,-2.03,-1.42
MAGVGAGPLRAMGRQALLLLALCATGAQGLYFHIGETEKRCFIEEIPDETMVIGNYRTQMWDKQKEVFLPSTPGLGMHVEVKDPDGKVVLSRQYGSEGRFTFTSHTPGDHQICLHSNSTRMALFAGGKLRVHLDIQVGEHANNYPEIAAKDKLTELQLRARQLLDQVEQIQKEQDYQRYREERFRLTSESTNQRVLWWSIAQTVILILTGIWQMRHLKSFFEAKKLV [TMED4],0.179,56,56.4,-0.0477,2.03,0.764
MKYILVTGGVISGIGKGIIASSVGTILKSCGLHVTSIKIDPYINIDAGTFSPYEHGEVFVLDDGGEVDLDLGNYERFLDIRLTKDNNLTTGKIYQYVINKERKGDYLGKTVQVVPHITDAIQEWVMRQALIPVDEDGLEPQVCVIELGGTVGDIESMPFIEAFRQFQFKVKRENFCNIHVSLVPQPSSTGEQKTKPTQNSVRELRGLGLSPDLVVCRCSNPLDTSVKEKISMFCHVEPEQVICVHDVSSIYRVPLLLEEQGVVDYFLRRLDLPIERQPRKMLMKWKEMADRYDRLLETCSIALVGKYTKFSDSYASVIKALEHSALAINHKLEIKYIDSADLEPITSQEEPVRYHEAWQKLCSAHGVLVPGGFGVRGTEGKIQAIAWARNQKKPFLGVCLGMQLAVVEFSRNVLGWQDANSTEFDPTTSHPVVVDMPEHNPGQMGGTMRLGKRRTLFQTKNSVMRKLYGDADYLEERHRHRFEVNPVWKKCLEEQGLKFVGQDVEGERMEIVELEDHPFFVGVQYHPEFLSRPIKPSPPYFGLLLASVGRLSHYLQKGCRLSPRDTYSDRSGSSSPDSEITELKFPSINHD [CTPS1],-0.00383,55.3,55.3,-0.0782,0.505,-2.34
MPHIDNDVKLDFKDVLLRPKRSTLKSRSEVDLTRSFSFRNSKQTYSGVPIIAANMDTVGTFEMAKVLCKFSLFTAVHKHYSLVQWQEFAGQNPDCLEHLAASSGTGSSDFEQLEQILEAIPQVKYICLDVANGYSEHFVEFVKDVRKRFPQHTIMAGNVVTGEMVEELILSGADIIKVGIGPGSVCTTRKKTGVGYPQLSAVMECADAAHGLKGHIISDGGCSCPGDVAKAFGAGADFVMLGGMLAGHSESGGELIERDGKKYKLFYGMSSEMAMKKYAGGVAEYRASEGKTVEVPFKGDVEHTIRDILGGIRSTCTYVGAAKLKELSRRTTFIRVTQQVNPIFSEAC [GMPR2],0.0286,56.3,59.4,-0.137,-0.68,-2.3
MPKHEFSVDMTCGGCAEAVSRVLNKLGGVKYDIDLPNKKVCIESEHSMDTLLATLKKTGKTVSYLGLE [ATOX1],-0.375,54.8,52.8,0.149,-3.27,-2.04
MAAALRVAAVGARLSVLASGLRAAVRSLCSQATSVNERIENKRRTALLGGGQRRIDAQHKRGKLTARERISLLLDPGSFVESDMFVEHRCADFGMAADKNKFPGDSVVTGRGRINGRLVYVFSQDFTVFGGSLSGAHAQKICKIMDQAITVGAPVIGLNDSGGARIQEGVESLAGYADIFLRNVTASGVIPQISLIMGPCAGGAVYSPALTDFTFMVKDTSYLFITGPDVVKSVTNEDVTQEELGGAKTHTTMSGVAHRAFENDVDALCNLRDFFNYLPLSSQDPAPVRECHDPSDRLVPELDTIVPLESTKAYNMVDIIHSVVDEREFFEIMPNYAKNIIVGFARMNGRTVGIVGNQPKVASGCLDINSSVKGARFVRFCDAFNIPLITFVDVPGFLPGTAQEYGGIIRHGAKLLYAFAEATVPKVTVITRKAYGGAYDVMSSKHLCGDTNYAWPTAEIAVMGAKGAVEIIFKGHENVEAAQAEYIEKFANPFPAAVRGFVDDIIQPSSTRARICCDLDVLASKKVQRPWRKHANIPL [PCCB],-0.114,54.3,54.9,-0.114,-1.53,-1.91
MPCGEDWLSHPLGIVQGFFAQNGVNPDWEKKVIEYFKEKLKENNAPKWVPSLNEVPLHYLKPNSFVKFRCMIQDMFDPEFYMGVYETVNQNTKAHVLHFGKYRDVAECGPQQELDLNSPRNTTLERQTFYCVPVPGESTWVKEAYVNANQARVSPSTSYTPSRHKRSYEDDDDMDLQPNKQKDQHAGARQAGSVGGLQWCGEPKRLETEASTGQQLNSLNLSSPFDLNFPLPGEKGPACLVKVYEDWDCFKVNDILELYGILSVDPVLSILNNDERDASALLDPMECTDTAEEQRVHSPPASLVPRIHVILAQKLQHINPLLPACLNKEESKTCKFVSSFMSELSPVRAELLGFLTHALLGDSLAAEYLILHLISTVYTRRDVLPLGKFTVNLSGCPRNSTFTEHLYRIIQHLVPASFRLQMTIENMNHLKFIPHKDYTANRLVSGLLQLPSNTSLVIDETLLEQGQLDTPGVHNVTALSNLITWQKVDYDFSYHQMEFPCNINVFITSEGRSLLPADCQIHLQPQLIPPNMEEYMNSLLSAVLPSVLNKFRIYLTLLRFLEYSISDEITKAVEDDFVEMRKNDPQSITADDLHQLLVVARCLSLSAGQTTLSRERWLRAKQLESLRRTRLQQQKCVNGNEL [MCMBP],0.324,49.2,50.1,-0.11,0.0238,2.25
MPPPRTREGRDRRDHHRAPSEEEALEKWDWNCPETRRLLEDAFFREEDYIRQGSEECQKFWTFFERLQRFQNLKTSRKEEKDPGQPKHSIPALADLPRTYDPRYRINLSVLGPATRGSQGLGRHLPAERVAEFRRALLHYLDFGQKQAFGRLAKLQRERAALPIAQYGNRILQTLKEHQVVVVAGDTGCGKSTQVPQYLLAAGFSHVACTQPRRIACISLAKRVGFESLSQYGSQVGYQIRFESTRSAATKIVFLTVGLLLRQIQREPSLPQYEVLIVDEVHERHLHNDFLLGVLQRLLPTRPDLKVILMSATINISLFSSYFSNAPVVQVPGRLFPITVVYQPQEAEPTTSKSEKLDPRPFLRVLESIDHKYPPEERGDLLVFLSGMAEISAVLEAAQTYASHTQRWVVLPLHSALSVADQDKVFDVAPPGVRKCILSTNIAETSVTIDGIRFVVDSGKVKEMSYDPQAKLQRLQEFWISQASAEQRKGRAGRTGPGVCFRLYAESDYDAFAPYPVPEIRRVALDSLVLQMKSMSVGDPRTFPFIEPPPPASLETAILYLRDQGALDSSEALTPIGSLLAQLPVDVVIGKMLILGSMFSLVEPVLTIAAALSVQSPFTRSAQSSPECAAARRPLESDQGDPFTLFNVFNAWVQVKSERSRNSRKWCRRRGIEEHRLYEMANLRRQFKELLEDHGLLAGAQAAQVGDSYSRLQQRRERRALHQLKRQHEEGAGRRRKVLRLQEEQDGGSSDEDRAGPAPPGASDGVDIQDVKFKLRHDLAQLQAAASSAQDLSREQLALLKLVLGRGLYPQLAVPDAFNSSRKDSDQIFHTQAKQGAVLHPTCVFAGSPEVLHAQELEASNCDGSRDDKDKMSSKHQLLSFVSLLETNKPYLVNCVRIPALQSLLLFSRSLDTNGDCSRLVADGWLELQLADSESAIRLLAASLRLRARWESALDRQLAHQAQQQLEEEEEDTPVSPKEVATLSKELLQFTASKIPYSLRRLTGLEVQNMYVGPQTIPATPHLPGLFGSSTLSPHPTKGGYAVTDFLTYNCLTNDTDLYSDCLRTFWTCPHCGLHAPLTPLERIAHENTCPQAPQDGPPGAEEAALETLQKTSVLQRPYHCEACGKDFLFTPTEVLRHRKQHV [DHX34],-0.242,50.1,49.8,-0.0525,0.188,0.311
